Common to all, as to test: cell-based or functional assay
In experiment [1] the target is HIV-1 Nef (full length Nef gene, accession no. GQ184335) cloned in VP16pCDNA+pACT mammalian two-hybrid vector (herpes simplex virus type 1; HIV-1).
Experiment [2] has as its target ASK1(g) cloned in pEYFP-N1 (human) (UniProt Q99683).
Experiment [3] concerns the target ASK1(h) cloned in pEYFP-N1 (human) (UniProt Q99683).
In experiment [4] the target is ASK1i cloned in pEYFP-N1 (human) (UniProt Q99683).
Chain of ASK1i cloned in pEYFP-N1 (human) (Q99683 1-904): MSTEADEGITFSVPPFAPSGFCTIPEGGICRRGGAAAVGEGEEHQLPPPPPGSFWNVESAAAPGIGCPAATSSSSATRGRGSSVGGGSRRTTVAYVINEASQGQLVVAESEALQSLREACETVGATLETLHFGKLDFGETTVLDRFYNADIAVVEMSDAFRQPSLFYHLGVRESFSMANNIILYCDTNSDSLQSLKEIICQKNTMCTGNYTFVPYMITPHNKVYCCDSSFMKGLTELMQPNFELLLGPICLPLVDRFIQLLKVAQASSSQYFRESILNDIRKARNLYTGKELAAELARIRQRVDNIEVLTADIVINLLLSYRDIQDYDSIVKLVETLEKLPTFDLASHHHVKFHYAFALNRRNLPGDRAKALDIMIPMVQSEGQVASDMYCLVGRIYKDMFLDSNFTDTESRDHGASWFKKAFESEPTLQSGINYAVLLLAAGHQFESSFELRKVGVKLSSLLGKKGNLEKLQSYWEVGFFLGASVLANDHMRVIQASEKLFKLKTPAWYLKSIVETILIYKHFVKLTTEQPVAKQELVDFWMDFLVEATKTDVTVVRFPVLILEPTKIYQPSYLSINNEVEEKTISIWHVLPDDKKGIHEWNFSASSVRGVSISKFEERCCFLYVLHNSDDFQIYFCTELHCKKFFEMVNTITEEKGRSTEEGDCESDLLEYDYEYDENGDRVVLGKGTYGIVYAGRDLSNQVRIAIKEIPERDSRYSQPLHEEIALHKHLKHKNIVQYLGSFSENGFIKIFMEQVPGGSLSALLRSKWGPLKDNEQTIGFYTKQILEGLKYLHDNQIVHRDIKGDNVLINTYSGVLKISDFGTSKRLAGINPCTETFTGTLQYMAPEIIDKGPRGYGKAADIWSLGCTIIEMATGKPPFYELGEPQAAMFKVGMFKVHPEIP

Chain of ASK1(g) cloned in pEYFP-N1 (human) (Q99683 1-1050): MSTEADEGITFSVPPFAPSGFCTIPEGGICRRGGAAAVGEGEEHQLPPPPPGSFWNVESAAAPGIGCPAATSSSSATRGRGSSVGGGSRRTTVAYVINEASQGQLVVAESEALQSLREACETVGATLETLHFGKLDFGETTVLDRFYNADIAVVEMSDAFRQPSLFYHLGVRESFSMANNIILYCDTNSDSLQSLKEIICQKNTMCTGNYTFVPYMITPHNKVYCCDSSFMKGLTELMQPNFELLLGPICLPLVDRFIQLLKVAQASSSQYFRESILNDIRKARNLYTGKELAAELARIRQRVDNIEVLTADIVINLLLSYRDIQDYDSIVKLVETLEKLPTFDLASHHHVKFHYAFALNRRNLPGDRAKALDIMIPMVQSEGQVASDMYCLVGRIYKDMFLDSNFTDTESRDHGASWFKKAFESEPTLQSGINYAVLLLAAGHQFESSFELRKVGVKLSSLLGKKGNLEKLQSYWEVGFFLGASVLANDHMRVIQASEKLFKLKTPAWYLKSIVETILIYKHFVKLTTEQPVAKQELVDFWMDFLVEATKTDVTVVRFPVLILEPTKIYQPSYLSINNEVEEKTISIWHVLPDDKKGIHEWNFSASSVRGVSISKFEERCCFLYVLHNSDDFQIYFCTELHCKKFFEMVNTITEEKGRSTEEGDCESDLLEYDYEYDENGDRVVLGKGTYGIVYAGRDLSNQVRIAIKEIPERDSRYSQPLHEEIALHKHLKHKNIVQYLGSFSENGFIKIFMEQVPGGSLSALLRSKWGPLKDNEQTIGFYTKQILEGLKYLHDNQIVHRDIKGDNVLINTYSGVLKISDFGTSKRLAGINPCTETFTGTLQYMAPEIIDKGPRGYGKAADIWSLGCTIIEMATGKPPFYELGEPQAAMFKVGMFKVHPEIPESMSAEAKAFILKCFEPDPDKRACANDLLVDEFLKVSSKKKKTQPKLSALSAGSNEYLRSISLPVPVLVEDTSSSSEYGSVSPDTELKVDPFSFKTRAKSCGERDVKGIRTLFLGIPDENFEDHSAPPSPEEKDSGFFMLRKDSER
Chain of ASK1(h) cloned in pEYFP-N1 (human) (Q99683 320-1050): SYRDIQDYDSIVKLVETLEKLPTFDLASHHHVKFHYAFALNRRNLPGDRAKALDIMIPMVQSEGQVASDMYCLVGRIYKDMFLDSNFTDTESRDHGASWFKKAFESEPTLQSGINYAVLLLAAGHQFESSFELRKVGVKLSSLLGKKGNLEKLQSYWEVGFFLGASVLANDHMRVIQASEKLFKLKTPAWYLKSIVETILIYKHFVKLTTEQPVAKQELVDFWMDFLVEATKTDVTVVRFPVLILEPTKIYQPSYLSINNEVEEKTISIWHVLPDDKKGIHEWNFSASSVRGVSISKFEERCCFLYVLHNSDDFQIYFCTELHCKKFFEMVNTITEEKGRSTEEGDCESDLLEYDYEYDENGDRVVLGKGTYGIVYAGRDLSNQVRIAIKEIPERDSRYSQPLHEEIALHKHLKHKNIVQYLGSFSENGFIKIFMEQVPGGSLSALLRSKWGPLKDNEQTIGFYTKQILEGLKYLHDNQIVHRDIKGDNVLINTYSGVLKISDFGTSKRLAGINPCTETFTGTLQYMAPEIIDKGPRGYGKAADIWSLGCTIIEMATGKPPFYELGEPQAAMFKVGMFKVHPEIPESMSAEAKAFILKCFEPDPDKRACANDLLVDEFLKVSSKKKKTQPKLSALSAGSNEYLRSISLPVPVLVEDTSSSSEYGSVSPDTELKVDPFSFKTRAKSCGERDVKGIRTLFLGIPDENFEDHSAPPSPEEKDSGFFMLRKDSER

For “ASK1a (1-1035) cloned in pBIND (from UniProt P04386 1-147; Q99683 1-345)”, in experiment [1], the luciferase activity compared to negative control pACT-pBIND came to 2.28 fold.

On to “ASK1b (959-2010) cloned in pBIND (from UniProt P04386 1-147; Q99683 320-670)”, for which the luciferase activity compared to negative control pACT-pBIND in experiment [1] is 1.1 fold.

As for “ASK1d (2581-3152) cloned in pBIND (from UniProt P04386 1-147; Q99683 861-1050)”, the luciferase activity compared to negative control pACT-pBIND in experiment [1] came out at 2.89 fold.

Consider “ASK1g (contain both ASK1a, ASK1d and in between sequence) cloned in pBIND (from UniProt P04386 1-147; Q99683 1-1050)”, for which, in experiment [1], the luciferase activity compared to negative control pACT-pBIND worked out at 154 fold.

For the substance “ASK1h (Contain ASK1d and upstream sequence) cloned in pBIND (from UniProt P04386 1-147; Q99683 320-1050)”, in experiment [1], the luciferase activity compared to negative control amounted to 8.41 fold.

Take “ASK1i (contain ASK1a and downstream sequence) cloned in pBIND (from UniProt P04386 1-147; Q99683 1-904)”: the luciferase activity compared to negative control in experiment [1] was 2.72 fold.

“ASK1j (contain in between ASK1a and ASK1d fragment) cloned in pBIND (from UniProt P04386 1-147; Q99683 320-904)” had a luciferase activity compared to negative control in experiment [1] of 0.5 fold.

In experiment [2], “HIV-1 Nef (accession no. GQ184335) cloned in pEYFP-N1” registered a % of Annexin V cells means apoptotic cells of 22.1%; an annexin V stained cells after co-transfection of 20%; an inhibition of apoptosis of 52%; an inhibition of apoptosis (annexin V and PI staining) of 50%. Moreover, the phosphorylation of JNK kinase (western blot, densitometry) in experiment [2] is 2 fold. Moreover, in experiment [3], the annexin V stained cells after co-transfection worked out at 38% and the inhibition of apoptosis worked out at 10%. In experiment [4], this substance returned an annexin V stained cells after co-transfection of 26% and an inhibition of apoptosis of 42%.

The values above are taken from patent US20150182581A1.
